Patent US20160228506A1, “Compositions and Formulations for Prevention and Reduction of Tumorigenesis, Cancer Cell Proliferation and Invasion, and Methods of Production and Use Thereof in Cancer Treatment” (PRONUTRIA, INC., priority 2013, published 2016)

Test: SGF digest of 168 nutritive polypeptide library, intact protein by LC-MS/MS
Format: in vitro ADME
Details: 168 nutritive polypeptide library SGF digest, LC-MS/MS spectral counts
Procedure: The in vitro intact half-life of multiple polypeptides in a complex mixture was determined using the simulated gastric in vitro digestion described above. Briefly, the 168 nutritive polypeptide library was generated as described herein by cloning, transforming, and expressing a gene library encoding 168 proteins as a single mixture. The recombinantly expressed proteins were purified from host cell proteins by IMAC purification as described herein.
The 168 Protein Library was treated with SGF as described above and the t=0 and t=10 min samples were analyzed for intact protein by LC-MS/MS. To begin, 10 μg of sample was loaded onto a 10% SDS-PAGE gel (Invitrogen) and run approximately 5 cm into the gel. The gel was excised into ten fractions from 100 kD to the dye front and the gel slices were processed by washing with 25 mM ammonium bicarbonate, followed by acetonitrile. Gel fractions were then reduced with 10 mM dithiothreitol at 60° C., followed by alkylation with 50 mM iodoacetamide at room temperature. Finally, the samples were digested with trypsin (Promega) at 37° C. for 4 h and the digestions were quenched with the addition of formic acid. The samples were then analyzed by nano LC/MS/MS using an EasynLC 1000 HPLC system interfaced to a ThermoFisher Q Exactive. Peptides were loaded on a trapping column and eluted over a 75 μm analytical column at 350 nL/min; both columns were packed with PepMap C18 3 μm resin (ThemoFisher). A 1 hour gradient was employed. The mass spectrometer was operated in data-dependent mode, with MS and MS/MS performed in the Orbitrap at 70,000 FWHM resolution and 17,500 FWHM resolution, respectively. The fifteen most abundant ions were selected for MS/MS. Data were searched against an appropriate database using Mascot to identify peptides. Mascot DAT files were parsed into the Scaffold software for validation, filtering and to create a nonredundant list per sample. Data were filtered at 1% protein and peptide false discovery rate (FDR) and requiring at least two unique peptides per protein. A full list of detected proteins and their spectral counts (SpC) was generated and reported as a function of each collected gel fraction. SpC are a count of the number of spectra identified for a given protein and are used as a measure of relative protein abundance (Liu, H. et al., Analytical Chemistry 2004, 76: 4193-4201). To calculate the percentage of intact protein remaining at the 10 min time point of the SGF digest the number of SpC representative of intact peptide in the t=10 min sample were divided by the number of SpC representative of intact peptide in the t=0 min sample. The number of SpC representative of intact peptide was defined as the sum of the SpC in the fraction with the highest number of SpC assigned to that protein in the t=0 min sample and the two flanking fractions.

Row | Molecule | % Intact Protein at 10 min
1 | SEQID-00570: protein of the 168 nutritive polypeptide library (protein, listed as Saccharomyces cerevisiae, source: /note="strain ATCC 204508 / S288c", protein of the 168 nutritive polypeptide library) MFLRNSVLRTAPVLRRGITTLTPVSTKLAPPAAASYSQAMKANNFVYVSGQIPYTPDNKPVQGSISEKAEQVFQNVKNILAESNSSLDNIVKVNVFLADMKNFAEFNSVYAKHFHTHKPARSCVGVASLPLNVDLEMEVIAVEKN | 91.4%
2 | SEQID-00607: protein of the 168 nutritive polypeptide library (protein, Arthrospira platensis C1, protein of the 168 nutritive polypeptide library) MALQDDWQQSHLERRQVLAESQKQIWATIGLWQRERYSQAITQKQDRQAFVSQLKQENQAFLADAHNNHRQQAEQLAEDLKEFVRSLQKETATFLEESAQSRAEKAEELAQELRDFRAELRDTVAQWQQQWQQQDQERAAGRRKLAQQVQGDLQEFNIIRTIMAEKLLQQTQEAKAERLAGIQSMFEDMGKFRMQLQEYRREREKSVWGGERVKSTPATPQKAKASQTLVPQTKPKAVKSAPSTTTAAQSTTPTAVVVAEPTKPAVPPNQPKPTTVVPHPPNPG | 0%
3 | SEQID-00592: protein of the 168 nutritive polypeptide library (protein, Zea mays, protein of the 168 nutritive polypeptide library) MAQTVVLKVGMSCEGCVGAVKRVLGKMEGVESYDVDIMEQKVTVKGNVTPDAVLQTVSKTGKKTSFWEAEAVTSESATPAGATA | 24.3%
4 | SEQID-00599: protein of the 168 nutritive polypeptide library (protein, listed as Agaricus bisporus, source: /note="var. bisporus"; source: /note="strain H97 / ATCC MYA-4626 / FGSC 10389", protein of the 168 nutritive polypeptide library) MSESLRYLGSLEGHKGWVTAIATSSENPDMILTASRDKTIIVWQLTREDDSYGYPKRILHGHNHFVSDVVISSDGQFALSSSWDHTLRLWDLNTGVTTRRFVGHSSDVLSVSFSADNRQIVSGSRDRTIKLWNTLGECKFDIKEDGHSEWVSCVRFSPNVANPVIVSAGWDKVVKVWELSKFKLKTNHYGHTGYINTVSVSPDGSLAASGGKDGITMLWDLNEGKHLYSLEAGDVVNALVFSPNRYWLCAATASCVKIFDLESKSIVDELKPTYTDVGEDARQPECVSIAWSADGQTLFTGYTDNAVRVWIVTS | 0%
5 | SEQID-00613: protein of the 168 nutritive polypeptide library (protein, Arthrospira platensis C1, protein of the 168 nutritive polypeptide library) MGLFDRIGRVVRANLNDLVNKAEDPEKILEQAVIEMQEDLIQLRQAVAQTIAQQKRSQQQYNQAQSQANQWQSRAQLALQKGDENLAREALQRKKGYLETANTLEISLRQQTEQVETLKRNLVSLESKISEAKTKKNMLKARAQAAKANEQLNNVLGGINTSSATSVFERMEEKVMIQEAKSQAAAELMGSGLEEQFRALEEGSDVDDELAAMKAQLAGAPANQPQLSPSAPTDSSTSNPEIDNELEELRRELNK | 0%
6 | SEQID-00590: protein of the 168 nutritive polypeptide library (protein, listed as Lactobacillus acidophilus, source: /note="strain 30SC", protein of the 168 nutritive polypeptide library) MANKAELVSEVASKTKLTKKEVAAAVDAIFGSIQDNLAKGEKVQLIGFGTFEVRHRAARKGRNPQTGDEIEIPASEVPAFKPGKALKEAVK | 0%
7 | SEQID-00581: protein of the 168 nutritive polypeptide library (protein, Arthrospira platensis NIES-39, protein of the 168 nutritive polypeptide library) MPKRQRKLAPPRGYKMHVKKGDTVQVIAGRDKGKVGEVISTLPKLSKVVVRDVNVRTKHVKPQQEGEGGRIVNFEAPIHSSNVMLYSTKEKVASRVSYTFTEDGRKVRMLKKTGEVID | 33.3%
8 | SEQID-00562: protein of the 168 nutritive polypeptide library (protein, listed as Lactobacillus acidophilus, source: /note="strain 30SC", protein of the 168 nutritive polypeptide library) MKKFASFVLGAVAGCAAGFLAGSLLVSDEQVDDVKNKIKDNDKLQDLKKKYDNGTEIVKNQLASFPKNVEDDSELKDFDDIVIDDSNKDDDVTAGDNAQESVDDLNNAEEEHNAEDAEEDKPEA | 0%
9 | SEQID-00612: protein of the 168 nutritive polypeptide library (protein, listed as Oryza sativa, source: /note="subsp. japonica", protein of the 168 nutritive polypeptide library) MICLRAAFPLTSSPLRRLALKPSSSRAAAAAMSSAIAAPVEHIVLIKVRPEAASSGAAAAMVSSLQALSTAVPGLSYIHVGPVLRLRSPAAEALGPTHVLHSRYATKPDLAAYAAHPAHVAAVQGHVLPNALDSTAIDWVNAALVPSPVNPGSAVRLSLAKLKEGVEAHQLAEKLAAATAAAGEAKGAKVSFGENFSPARAKGYQFGMVAVFDSVEGLDAVDGDGKVEAAKAIVRPLLDDVLELEFVVGPAAAEAPAPANL | 0%
10 | SEQID-00574: protein of the 168 nutritive polypeptide library (protein, listed as Lactobacillus acidophilus, source: /note="strain 30SC", protein of the 168 nutritive polypeptide library) MPTINQLVRKGRHSKVTKSKSPALNYSYNSMKKESVFNPAPQMRGVATRVGTMTPKKPNSALRKYARVRLSNLIEVTAYIPGEGHNLQEHSVVLIRGGRVKDLPGVRYHIVRGALDTAGVDGRKQSRSKYGAKKD | 0%
11 | SEQID-00573: protein of the 168 nutritive polypeptide library (protein, listed as Cicer arietinum) MAPAKAEKKPAEKKPAAEKAPAEKKPKAEKKISKEGTSDKKKKRVKKSVETYKIYIFKVLKQVHPDIGISSKAMGIMNSFINDIFEKLAQEASRLARYNKKPTITSREIQTAVRLVLPGELAKHAVSEGTKAVTKFTSS | 66.7%
12 | SEQID-00564: protein of the 168 nutritive polypeptide library (protein, Zea mays, protein of the 168 nutritive polypeptide library) MAPKAEKKPAAKKPAEEEPAAPAEKAPAGKKPDLIKRLPAGKSAGKEGGVDKKGRKKAKKSVETYKIYIFKVLKQVHPDIGISSKAMSIMNSFINDIFEKLAGEAAKLARYNKKPTITSREIQTSVRLVLPGELAKHAVSEGTKAVTKFTSS | 89.6%
13 | SEQID-00591: protein of the 168 nutritive polypeptide library (protein, listed as Saccharomyces cerevisiae, source: /note="strain ATCC 204508 / S288c", protein of the 168 nutritive polypeptide library) MLNRCISRNTRLPVNLRIASRFYSDGPLGGAGPGNPQDIFIKRERAKEDYYARQQEREQLAHVKEQLKEHKKKLENLENKINNLSK | 20%
14 | SEQID-00609: protein of the 168 nutritive polypeptide library (protein, listed as Saccharomyces cerevisiae, source: /note="strain ATCC 204508 / S288c", protein of the 168 nutritive polypeptide library) MSNPFDLLGNDVEDADVVVLPPKEIVKSNTSSKKADVPPPSADPSKARKNRPRPSGNEGAIRDKTAGRRNNRSKDVTDSATTKKSNTRRATDRHSRTGKTDTKKKVNQGWGDDKKELSAEKEAQADAAAEIAEDAAEAEDAGKPKTAQLSLQDYLNQQANNQFNKVPEAKKVELDAERIETAEKEAYVPATKVKNVKSKQLKTKEYLEFDATFVESNTRKNFGDRNNNSRNNFNNRRGGRGARKGNNTANATNSANTVQKNRNIDVSNLPSLA | 0%
15 | SEQID-00602: protein of the 168 nutritive polypeptide library (protein, listed as Lactobacillus acidophilus, source: /note="strain 30SC", protein of the 168 nutritive polypeptide library) MKSYMKKIAAVVAVAGVALSTAACSNGGSNSTVASYKGGKITQQQYYDEMKKSQAGKSTLANMIINRALEQQYGKYVSSKKVDKQYNNYKKQYGSQFSAVLQQNGMTASSFKENLKTNLLSEQALKHIKKISKKQEQQAWKSYQPKVTVQHILVAKKSTAQSIIKQLKDGKSFKSLAKKYSLDTATKNKAGKLPAFDSTDNTLDSSFKTAAFKLKTGEVTSTPVKSQSGYHVIKMISHPAKGKFADHKKAIDDEIYASMAQDQATMKDVISTVLKRADVSIKDSDLKDVLASYVSTTSATK | 0%
